According to paper PMC314469, “Protein Interaction Networks by Proteome Peptide Scanning” (PLoS Biology, 2004):

T1: amphyphisin SH3 (AMPH_HUMAN), P49418
T1 chain: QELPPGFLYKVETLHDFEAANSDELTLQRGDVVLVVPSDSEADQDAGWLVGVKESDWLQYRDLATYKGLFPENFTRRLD


Key:
[1] = target: T1, amphyphisin SH3 (AMPH_HUMAN), P49418; test: SPOT array
[2] = target: endophilin SH3 (SH3G2_HUMAN), Q99962; test: SPOT array

Row | Binder | normalised SPOT signal, Boehringer light units (BLU); mean over the file's lines of this peptide [1] | normalised SPOT signal, Boehringer light units (BLU); mean over the file's lines of this peptide [2]
1 | VSHLIRRPISVNPN [Q9NXY9 858-871] | 36.8 | 381
2 | WALFFRRPKASLPR [Q9ULK5 218-231] | 194 | 1700
3 | WGALPPRPPLLLLL [Q9C0B8 71-85] | 42.8 | 3390
4 | VTQLPARPPPALYT [Q9NRJ4 1023-1037] | 39.1 | 1400
5 | SLGLPSRPPSQLSG [Q8TBS2 64-78] | 42.4 | 101
6 | VVELPRRPAPPAAV [Q96SN6 144-157] | 35.8 | 60.5
7 | VQPQLRRPFELLIA [Q96QT6 202-215] | 33.9 | 41
8 | VTSKPRKPPTPPEK [Q96JP2 954-968] | 157 | 1560
9 | VTDLPKKPPPPEVT [Q96QH2 87-101] | 53 | 58.7
10 | ASEIIERPSKKDGF [Q9BZF1 153-166] | 129 | 0.4
11 | VRSRFKRPKPNLAR [Q9HCY0 1434-1447] | 37 | 43.1
12 | SLLSPLRPPGQRGL [Q9UL14 222-236] | 398 | 323
13 | VRLPFHRPPRAGAW [Q9UKN7 887-900] | 2830 | 455
14 | VVSSPPRPVRHGDM [Q9Y6A1 387-400] | 2920 | 2050
15 | VRRIPTRPPRAPRL [Q9NWD7 62-76] | 25000 | 14400
16 | VSMQLRRPSDRELS [Q04206 268-281] | 44.8 | 642
17 | VPQKPERPPLPPKP [Q96C88 96-110] | 2630 | 13800
18 | VSPEPRRPAPAVSP [Q96JM3 305-318] | 233 | 10.4
19 | VTLLIYRPERNTKL [Q9H4N5 254-267] | 362 | 28.7
20 | SLLRPWRPLRARGS [Q9NV38 6-19] | 6960 | 2400
21 | VVVALSRPVRPQDL [Q9Y6W6 10-23] | 465 | 0
22 | VTSRFKRPVNVPRD [Q9P0K9 253-266] | 32.8 | 33.4
23 | VTDLPKKPPPPEAT [Q96QH2 111-125] | 51.8 | 58
24 | WGSLPARPRRPTPT [Q13545 27-40] | 4730 | 7230
25 | VSGPPRKPPGTVAG [O00255 515-529] | 61.2 | 63.4
26 | VSVLPKRPRPAEFK [Q96QH2 350-363] | 54.2 | 5850
27 | VRYPISRPRRRSSP [P10915 314-327] | 883 | 961
28 | VSAALRRPGPSLVL [Q9BSQ9 205-218] | 34 | 0

The remaining lines, values ahead:

Row | normalised SPOT signal, Boehringer light units (BLU); mean over the file's lines of this peptide [1] | normalised SPOT signal, Boehringer light units (BLU); mean over the file's lines of this peptide [2] | Binder
29 | 80.6 | 782 | VYKPPLKPPKGTRQ [O94991 330-344]
30 | 25.8 | 19.5 | VPRDLRRPASLIGQ [O60503 967-980]
31 | 57.9 | 59.6 | SLSLPDKPPPQPQQ [P42695 1464-1478]
32 | 56.5 | 42.4 | VSYPPSKPPTYEEQ [Q15134 299-313]
33 | 21500 | 24800 | VPSLPIRPSRAPSR [O43426 1061-1074]
34 | 180 | 4170 | VYTPPPRPPPPWGS [AAH30267 1118-1132]
35 | 64.7 | 279 | VVPQPQRPDKSPLP [P50548 338-351]
36 | 73.9 | 557 | WSQSPQRPPPSTTH [O14782 762-776]
37 | 19300 | 11400 | VTIRPLRPPQRARL [O15211 317-331]
38 | 966 | 13000 | VRPPPARPPSGPGL [BAC04982 161-175]
39 | 15.7 | 860 | VVPVPERPPEPRAM [O94820 840-854]
40 | 15.5 | 539 | VRLLIRRPESFGPA [Q92736 2321-2334]
41 | 109 | 332 | WAGTLQRPVKLLPW [P54317 34-47]
42 | 109 | 84.7 | VQSIINRPRKSPLP [O75970 1239-1252]
